US20200361992A1 (PROTAGONIST THERAPEUTICS, published 2020)
Starred links: 1 amine or outer side, 2 acyl side, 3 side chain; linkers in the order of their positions; H or OH if unused. Positions of bridges follow the written chain, without caps; N, C: chain ends. Non-standard residues stand in square brackets, D forms with d. Groups on a side chain read outwards from the residue. Primed or numbered codes have the meaning given here. No end group written: not given here. *: point of attachment. Npc″ = L-nipecotic acid, O=C([C@H]1CCCN([*:1])C1)[*:2]; PEG12 = NCCOCCOCCOCCOCCOCCOCCOCCOCCOCCOCCOCCOCCC(=O)O; Palmitoyl = CCCCCCCCCCCCCCCC(=O)*; NMeF = CN[C@@H](Cc1ccccc1)C(=O)O; β3hF = N[C@H](CC(=O)O)Cc1ccccc1; Isovaleryl = CC(C)CC(=O)*; Npc = nipecotic acid

T1: human ferroportin (SLC40A1) fused in frame with the GFP protein, stably expressed in HEK293 cells (human, UniProt Q9NP59 1-571)
T1 sequence (looked up): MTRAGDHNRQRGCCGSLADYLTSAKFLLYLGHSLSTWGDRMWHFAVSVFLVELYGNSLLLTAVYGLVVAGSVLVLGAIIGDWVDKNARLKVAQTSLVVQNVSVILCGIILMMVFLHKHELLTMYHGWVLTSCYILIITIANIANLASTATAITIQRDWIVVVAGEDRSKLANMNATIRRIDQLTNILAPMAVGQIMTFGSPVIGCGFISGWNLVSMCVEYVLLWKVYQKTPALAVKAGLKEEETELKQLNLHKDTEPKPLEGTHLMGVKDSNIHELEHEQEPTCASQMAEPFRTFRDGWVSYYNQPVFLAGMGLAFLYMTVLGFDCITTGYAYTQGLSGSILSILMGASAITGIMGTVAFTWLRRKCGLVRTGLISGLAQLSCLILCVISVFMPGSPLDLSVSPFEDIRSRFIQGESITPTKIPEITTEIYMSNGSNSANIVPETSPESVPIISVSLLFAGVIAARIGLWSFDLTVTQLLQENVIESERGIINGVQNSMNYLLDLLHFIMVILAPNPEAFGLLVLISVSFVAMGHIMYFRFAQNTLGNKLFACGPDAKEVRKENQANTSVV

B1: Compd ID 517 (peptide)
chain: DTHFPCIKX
modifications: not fully specified; N-terminal isovaleric acid on each monomer; D-Lys 8; b-homoPhe 9; the two monomers linked through IDA-[(b-Ala)-Palm]; -NH2
B2: Compd ID 518 (peptide)
chain: Isovaleryl-DTHF[Npc″]CI[dK][NMeF]
modifications: not fully specified (C-terminus); also: dimer: two monomers linked through IDA-[(b-Ala)-Palm]-NH2
B3: Compd ID 515 (peptide)
chain: DTHXPCIKX
modifications: N-terminal isovaleric acid on each monomer; BIP 4; D-Lys 8; NMe-Phe 9; the two monomers linked through IDA-[(b-Ala)-Palm]; -NH2
B4: Compd ID 516 (peptide)
chain: DTHFPCIKX
modifications: N-terminal isovaleric acid on each monomer; b-homoPhe 9; the two monomers linked through IDA-[(b-Ala)-Palm]; -NH2
B5: Compd ID 509 (peptide)
chain: DTHFPCIIFK
modifications: N-terminal isovaleric acid on each monomer; D-Lys 10; the two monomers linked through IDA-[(b-Ala)-Palm]; -NH2
B6: Compd ID 514 (peptide)
chain: DTHFPCIKX
modifications: N-terminal isovaleric acid on each monomer; D-Lys 8; NMe-Phe 9; the two monomers linked through IDA-[(b-Ala)-Palm]; -NH2
B7: Compd ID 507 (peptide)
chain: DTHFPCIKX
modifications: N-terminal isovaleric acid on each monomer; NMe-Phe 9; the two monomers linked through IDA-[(b-Ala)-Palm]; -NH2
B8: Compd ID 508 (peptide)
chain: DTHFPCIKX
modifications: N-terminal isovaleric acid on each monomer; a-MePhe 9; the two monomers linked through IDA-[(b-Ala)-Palm]; -NH2
B9: Compd ID 169 (peptide)
peptide: DTHXPCIKXKKC
modifications: N-terminal isovaleric acid; D-Asp 1; Dpa 4; (D)Lys 8; bhPhe 9; Lys(Peg11-Palm) 10; (D)Lys 11; C-terminal amide; disulfide between the two Cys (6 and 12)
B10: Compd ID 171 (peptide)
peptide: DTHXPCIKFKCK
modifications: N-terminal isovaleric acid; bhPhe 4; (D)Lys 8; Lys(Peg11-Palm) 10; (D)Lys 12; C-terminal amide; disulfide between the two Cys (6 and 11)
B11: Compd ID 175 (peptide)
peptide: DTHXPCIKXKKC
modifications: N-terminal isovaleric acid; Dpa 4; (D)Lys 8; bhPhe 9; Lys(Peg11-Palm) 10; dLys_Ac 11; C-terminal amide; disulfide between the two Cys (6 and 12)
B12: Compd ID 170 (peptide)
peptide: DTHXPCIKXKCK
modifications: N-terminal isovaleric acid; Dpa 4; (D)Lys 8; bhPhe 9; Lys(Peg11-Palm) 10; (D)Lys 12; C-terminal amide; disulfide between the two Cys (6 and 11)
B13: Ref. Compd 1 (peptide)
peptide: DTHFPCIKFKPRSKGCK
modifications: N-terminal isovaleric acid; Lys[PEG11-Palm] 10; C-terminal amide; disulfide between the two Cys (6 and 16)
B14: RI-Mini Hepcidin (peptide)
peptide: FICIPFHTD
modifications: all residues D-amino acids (retro inverse); free N-terminus (Hy-); C-terminal amide

target: T1, human ferroportin (SLC40A1) fused in …; assay: cell-based or functional assay

FPN IC50	Binder
5 nM	B1
20 nM	Isovaleryl-DTHFPCIK[Phe(4-OCH2CH2NH2)]K-{Lys(isoGlu-Palm)-NH2} (also: dimer: two monomers linked through K-Lys[isoGlu-Palm]-NH2) [Compd ID 504]
8 nM	B2
26 nM	B3
6 nM	B4
433 nM	B5
4 nM	B6
10 nM	B7
4 nM	Isovaleryl-DTHFPCI[dK]F-{IDA(βAla-Palm)-NH2} (also: dimer: two monomers joined through IDA) [Compd ID 506]
9 nM	B8

target: T1, human ferroportin (SLC40A1) fused in …; assay: cell-based or functional assay; remark: another data set of the same source

FPN IC50	Binder
12 nM	B9
39 nM	Isovaleryl-DTH[β3hF][Npc]CI[dK]FK([PEG12-Palmitoyl])C[dK]-NH2 (disulfide 6-11) [Compd ID 172]
47 nM	B10
5 nM	B11
10 nM	B12

target: T1, human ferroportin (SLC40A1) fused in …; assay: cell-based or functional assay; remark: another data set of the same source

Potency EC50	Potency EC50 (nM)	Binder
30 nM	–	B13
–	> 10000 nM	B14
712 nM	–	H-DTHFPICIF-NH2 [Mini-Hepcidin 1-9]
